A short description of series [1]: Stability study of SAHH / His•SAHH. In kind it is physicochemical. The conditions noted are these: 45° for three days; FIGS. 2 and 5. The text has this: FIG. 2 contains the results of a stability study of SAHH.
FIG. 5 contains the results of a stability study of His•SAHH.
The SAHH enzyme of the invention has favorable properties. For instance, the SAHH has a high specific activity of at least […]. Further, the cloned SAHH of the invention provides a high expression of 20% of total cell protein. Moreover, SAHH produced according to the method of the invention has high stability as illustrated in the attached FIGS. 2 and 5.
The enzyme was formulated as follows: 20 mM potassium phosphate buffer, pH 7.6, 100 mM sodium chloride, 30% glycerol, 1 mM DTT, 1 mM NAD, and 1 mM EDTA.

The nature of series [2]: SAHH activity measurement (SAH hydrolysis coupled to rHCYase, DBPDA readout). In kind it is biochemical. As to the method: Assay buffer: 20 mM potassium phosphate, pH 8.0, 1 mM DTT, and 1 mM EDTA.
2 mM S-adenosyl-L-homocysteine (SAH)
L-homocysteine (various concentrations)
40 mM DBPDA, dissolved in 6 M HCl
40 mM potassium ferricyanide
Mix well and incubate at 37° C. for 10 min. and read absorbance at 675 nm or fluorescence at EX665 nm/EM690 nm. 1 unit is defined as 1 μmole of S-adenosylhomocysteine hydrolated in 1 min. at 37° C. in the presence of excess rHCYase.

B1: SAHH: Recombinant T. vaginalis S-adenosyl homocysteinase encoded by SEQ ID NO:1 (amino acid SEQ ID NO:7), expressed in E. coli (protein, listed as Homo sapiens)
chain: MACKSPTGAPFEYRIADINLHVLGRKELTLAEKEMPGLMVLRERYSASKPLKGVRISGSLHMTVQTAVLIETLTALGADVRWASCNIFSTQDTAAAAIVVGPTGTPEKPAGIPVFAWKGETLPEYWENTYRALTWPDGQGPQQVVDDGGDATLLISKGFEFETAGAVPEPTEADNLEYRCVLATLKQVFNQDKNHWHTVAAGMNGVSEETTTGVHRLYQLEKEGKLLFPAINVNDAVTKSKFDNIYGCRHSLIDGINRASDVMIGGKTALVMGYGDVGKGCAQSLRGQGARVIITELDPICALQAAMEGYQVRRIEEVVKDVDIFVTCTGNCDIISVDMMAQMKDKAIVGNIGHFDNEIDTDGLMKYPGIKHIPIKPEYDMWEFPDGHAILLLAEGRLLNLGCATGHPSFVMSMSFTNQTLAQLDLYEKRGNLEKKVYTLPKHLDEEVARLHLGSLDVHLTKLTQKQADYINVPVEGPYKSDAYRY
For the molecule B1, the “stability (activity loss)” value in series [1] is recorded as “without activity loss”. The specific activity result is “at least 1.5 U/ml” in series [2] (general statement on the SAHH of the invention) and 1.64 units/mg protein in series [2] (purified enzyme, 1 unit = 1 μmole SAH hydrolated in 1 min at 37° C. with excess rHCYase).

The values are drawn from US6713273B2, “High expression and production of high specific activity recombinant S-adenosyl homocysteinase (SAHH) and improved assays for S-adenosylmethionine (SAM)” (priority 2000, dated 2004).
